Earlier results, collected in article PMC8594252.
pKd: −log10 of the molar value.

Target: HSPE1 (Homo sapiens) (UniProt P61604)

For HSPE1 (from UniProt P61604), the pKd is given as 5.52.
